Data: patent US20240254227A1 (Alector, published 2024)
One block for each binder: values may come before it.

Key:
[1] = target: T1, murine CD300LB stably expressed on Jurkat cells (mouse, UniProt Q3U497 18-209); experiment: flow cytometry, stable Jurkat cells
T1 construct: also called muCD300LB; mouse CD300LB
T1 sequence: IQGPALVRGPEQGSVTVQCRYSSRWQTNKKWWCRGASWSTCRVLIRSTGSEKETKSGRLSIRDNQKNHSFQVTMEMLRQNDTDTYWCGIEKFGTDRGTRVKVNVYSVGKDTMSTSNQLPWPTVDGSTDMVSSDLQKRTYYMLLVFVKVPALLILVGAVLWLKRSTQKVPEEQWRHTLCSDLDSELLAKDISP

murine CD300LB-Fc = target: T2, murine CD300LB-Fc (mouse); experiment: SPR (Carterra LSA), antibody immobilised, Fc fusion at 300 or 600 nM
T2 construct: mouse IgG2a-Fc fusion (R&D Systems); the entry is the whole fusion chain; also called mCD300LB; Mouse CD300LB-Fc
T2 chain: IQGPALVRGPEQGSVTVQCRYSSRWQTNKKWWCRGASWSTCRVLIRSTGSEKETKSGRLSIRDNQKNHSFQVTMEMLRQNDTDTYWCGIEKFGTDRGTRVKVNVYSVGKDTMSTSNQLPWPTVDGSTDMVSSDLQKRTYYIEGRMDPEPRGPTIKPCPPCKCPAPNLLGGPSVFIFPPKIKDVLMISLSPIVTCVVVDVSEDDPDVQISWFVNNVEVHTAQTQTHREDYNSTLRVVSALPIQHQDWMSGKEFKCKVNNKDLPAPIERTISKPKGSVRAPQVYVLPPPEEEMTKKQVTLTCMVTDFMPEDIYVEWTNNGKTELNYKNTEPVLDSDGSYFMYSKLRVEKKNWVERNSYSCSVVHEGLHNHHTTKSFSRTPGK
Procedure: Binding of mouse anti-CD300LB IgG1 antibodies of the present disclosure to human and murine CD300 orthologs were evaluated by surface plasmon resonance (SPR) using a Carterra LSA instrument (Carterra, Salt Lake City, UT). […] A HC200M sensor chip (Carterra) was activated using the single channel flow cell with a 7-minute injection of a 1:1:1 mixture of 100 mM MES pH 5.5, 100 mM sulfo-NHS, 400 mM EDC (all reconstituted in MES pH 5.5; 100 μL of each mixed in vial immediately before running assay). After switching to the multi-channel array flow cell, the antibodies were injected over the activated chip in a 96-spot array for 10 minutes. The remaining unconjugated active groups on the chip were then blocked by injecting 1M Ethanolamine pH 8.5 (Carterra) for 7 minutes using the single channel flow cell. After priming with running buffer (HBS-TE, Carterra) with 0.5 mg/ml BSA (Sigma), the immobilized anti-CD300LB antibodies were tested for their ability to bind human and mouse recombinant CD300LB extracellular domains. Human CD300 family members and mouse CD300A were hIgG1-Fc fusions, while mouse CD300LB, mouse CD300C, mouse CD300D, and mouse CD300E were mouse IgG2a-Fc fusions (R&D Systems). Binding was assessed by injecting each analyte over the entire antibody array using the single channel flow cell. CD300 analytes were diluted to 300 nM or 600 nM in running buffer and injected in series without regeneration. Two or three buffer blanks were run between each mouse or human ortholog, respectively. Data were processed and analyzed using NextGenKIT high-throughput kinetics analysis software (Carterra).
Results of anti-CD300LB antibody binding to human CD300 family members is provided below in Table 7.

binding result [1]: no binding (tested: 10 ug/mL)
B1: anti-CD300LB antibody CD-02 (antibody, V domains shown)
VH: QVQLQQPGAELVRPGSSVKLSCQASGYTFTNYWMHWVRQRPIQGLEWIGNIDPSDSETHYNQKFKDRATLTVDKSSSTAYMQLSSLTSEDSAVYYCARSGVYDDEGGDYWGQGTTLTVSS
VL: ENVLTQSPAIMSASPGEKVTMTCSASSSVSYIHWYQQKSSTSPKLWIYDTSKLASGVPGRFSGSGSGNSYSLTISSMETEDVATYYCFQGSGYPLTFGAGTKLELK

SPR binding (control subtracted) (murine CD300LB-Fc): 29
B2: anti-CD300LB antibody CD-01 (antibody, V domains shown)
VH: RVQLQQSGAELVRPGASVTLSCKASGFTFTDFEMHWVKKTPVHGLEWIGAIDPESGNTAYNQKFRGKATLTADKSSSTAYMELRYLTSEDSAVYYCTPLISGADYWGQGTTLTVSS
VL: DVVMTQSPLSLPVSLGDQASISCRSSQSLVHSDGNTYLYWYLQKPGQSPKLLIYKVSNRFSGVPDRFSGSGSGTDFTFKISRVGAEDLGVYFCSQSTHVPWTFGGGTKLEII
